Reference: patent US20230250170A1

Tests used:
[1] = molecular target: human NPR1 on HEK293/hNPR1 cells (human) (UniProt P16066); experiment: cell-based or functional assay
[2] = molecular target: dog NPR1 extracellular domain expressed with a C-terminal myc-myc-hexahistidine (dog); experiment: SPR Biacore 8K, mAb captured via anti-hFc, 25 C
[3] = molecular target: human NPR1 extracellular domain expressed with a C-terminal myc-myc-hexahistidine (human) (UniProt P16066); experiment: SPR Biacore 8K, mAb captured via anti-hFc, 25 C
Chain of human NPR1 extracellular domain expressed with a C-terminal myc-myc-hexahistidine (human) (P16066 other isoform, or with tags, fused parts or gaps): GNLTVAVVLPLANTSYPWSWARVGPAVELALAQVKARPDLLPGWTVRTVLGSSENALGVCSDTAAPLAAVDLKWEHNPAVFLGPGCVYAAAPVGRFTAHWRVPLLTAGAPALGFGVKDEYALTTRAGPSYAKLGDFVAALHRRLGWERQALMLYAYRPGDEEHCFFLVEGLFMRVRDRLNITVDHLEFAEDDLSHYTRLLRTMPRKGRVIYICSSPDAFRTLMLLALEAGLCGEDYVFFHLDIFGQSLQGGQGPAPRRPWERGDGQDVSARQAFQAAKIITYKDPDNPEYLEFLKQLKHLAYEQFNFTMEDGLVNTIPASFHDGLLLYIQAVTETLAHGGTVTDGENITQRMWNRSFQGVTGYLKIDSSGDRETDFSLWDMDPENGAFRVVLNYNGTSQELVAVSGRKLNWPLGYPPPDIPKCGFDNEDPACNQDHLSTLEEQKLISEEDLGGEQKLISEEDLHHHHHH

[4] = molecular target: monkey NPR1 extracellular domain expressed with a C-terminal myc-myc-hexahistidine (monkey); experiment: SPR Biacore 8K, mAb captured via anti-hFc, 25 C
Chain of monkey NPR1 extracellular domain expressed with a C-terminal myc-myc-hexahistidine (monkey) (P16066 other isoform, or with tags, fused parts or gaps): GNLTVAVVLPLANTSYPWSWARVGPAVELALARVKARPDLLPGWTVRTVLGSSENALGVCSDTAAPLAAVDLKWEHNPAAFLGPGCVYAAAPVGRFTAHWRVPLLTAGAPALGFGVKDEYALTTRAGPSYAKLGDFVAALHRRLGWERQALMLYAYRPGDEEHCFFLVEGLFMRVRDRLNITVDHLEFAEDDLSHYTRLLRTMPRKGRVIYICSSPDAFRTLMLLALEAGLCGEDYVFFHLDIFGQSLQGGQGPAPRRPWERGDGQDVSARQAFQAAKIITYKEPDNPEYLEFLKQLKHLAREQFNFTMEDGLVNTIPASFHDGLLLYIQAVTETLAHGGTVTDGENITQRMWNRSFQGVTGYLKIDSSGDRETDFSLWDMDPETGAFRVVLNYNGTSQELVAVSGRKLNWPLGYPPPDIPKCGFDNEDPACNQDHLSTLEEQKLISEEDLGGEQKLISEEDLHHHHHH

[5] = molecular target: mouse NPR1 extracellular domain expressed with a C-terminal myc-myc-hexahistidine (mouse) (UniProt P18293); experiment: SPR Biacore 8K, mAb captured via anti-hFc, 25 C
Chain of mouse NPR1 extracellular domain expressed with a C-terminal myc-myc-hexahistidine (mouse) (P18293 other isoform, or with tags, fused parts or gaps): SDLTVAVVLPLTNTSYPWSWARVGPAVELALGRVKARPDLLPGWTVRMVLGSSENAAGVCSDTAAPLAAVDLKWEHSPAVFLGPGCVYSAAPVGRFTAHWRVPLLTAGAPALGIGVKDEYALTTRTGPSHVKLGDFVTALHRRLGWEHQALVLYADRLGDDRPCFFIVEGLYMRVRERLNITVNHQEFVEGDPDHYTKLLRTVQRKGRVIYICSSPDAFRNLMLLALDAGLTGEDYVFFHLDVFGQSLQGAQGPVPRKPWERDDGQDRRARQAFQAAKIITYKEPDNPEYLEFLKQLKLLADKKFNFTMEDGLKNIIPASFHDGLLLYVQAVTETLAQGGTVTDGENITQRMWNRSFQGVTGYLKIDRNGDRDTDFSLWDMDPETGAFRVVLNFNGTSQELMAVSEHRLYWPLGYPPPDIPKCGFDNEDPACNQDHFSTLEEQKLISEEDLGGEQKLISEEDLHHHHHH

[6] = molecular target: pig NPR1 extracellular domain expressed with a C-terminal myc-myc-hexahistidine (pig); experiment: SPR Biacore 8K, mAb captured via anti-hFc, 25 C
Chain of pig NPR1 extracellular domain expressed with a C-terminal myc-myc-hexahistidine (pig) (chain, as listed by the source limits assumed): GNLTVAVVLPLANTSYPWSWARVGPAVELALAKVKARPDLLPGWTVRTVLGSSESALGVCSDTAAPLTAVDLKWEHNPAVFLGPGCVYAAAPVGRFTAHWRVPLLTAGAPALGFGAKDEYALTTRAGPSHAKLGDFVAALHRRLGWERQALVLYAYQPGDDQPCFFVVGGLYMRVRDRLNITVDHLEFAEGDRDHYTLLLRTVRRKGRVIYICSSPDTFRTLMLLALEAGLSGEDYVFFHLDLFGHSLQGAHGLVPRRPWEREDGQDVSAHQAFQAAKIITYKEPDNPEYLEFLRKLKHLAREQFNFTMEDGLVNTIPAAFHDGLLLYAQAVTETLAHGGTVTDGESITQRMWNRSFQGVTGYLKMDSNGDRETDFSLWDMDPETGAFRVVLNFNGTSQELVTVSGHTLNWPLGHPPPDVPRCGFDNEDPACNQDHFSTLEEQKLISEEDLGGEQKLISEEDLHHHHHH

[7] = molecular target: dog NPR1 extracellular domain expressed with a C-terminal myc-myc-hexahistidine (dog); experiment: SPR Biacore 8K, mAb captured via anti-hFc, 37 C
[8] = molecular target: human NPR1 extracellular domain expressed with a C-terminal myc-myc-hexahistidine (human) (UniProt P16066); experiment: SPR Biacore 8K, mAb captured via anti-hFc, 37 C
[9] = molecular target: monkey NPR1 extracellular domain expressed with a C-terminal myc-myc-hexahistidine (monkey); experiment: SPR Biacore 8K, mAb captured via anti-hFc, 37 C
[10] = molecular target: mouse NPR1 extracellular domain expressed with a C-terminal myc-myc-hexahistidine (mouse) (UniProt P18293); experiment: SPR Biacore 8K, mAb captured via anti-hFc, 37 C
[11] = molecular target: pig NPR1 extracellular domain expressed with a C-terminal myc-myc-hexahistidine (pig); experiment: SPR Biacore 8K, mAb captured via anti-hFc, 37 C
[12] = molecular target: hNPR1-MMH in the presence of hANP (receptor-ligand complex) (human) (UniProt P01160); experiment: SPR Biacore 8K, mAb captured via anti-hFc, 25 C, 10-fold hANP present
Chain of hNPR1-MMH in the presence of hANP (receptor-ligand complex) (human) (P01160 124-151 limits assumed, chain 2 of 2): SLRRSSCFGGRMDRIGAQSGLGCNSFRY

[13] = molecular target: hNPR1-MMH in the presence of hANP (receptor-ligand complex) (human) (UniProt P01160); experiment: SPR Biacore 8K, mAb captured via anti-hFc, 37 C, 10-fold hANP present
[14] = molecular target: human NPR1 extracellular domain expressed with a C-terminal myc-myc-hexahistidine (human) (UniProt P16066); experiment: SPR Biacore 4000, mAb captured via anti-hFc, 37 C, binding pH 7.4, dissociation pH 7.4
[15] = molecular target: monkey NPR1 extracellular domain expressed with a C-terminal myc-myc-hexahistidine (monkey); experiment: as above
[16] = molecular target: human NPR1 extracellular domain expressed with a C-terminal myc-myc-hexahistidine (human) (UniProt P16066); experiment: SPR Biacore 4000, mAb captured via anti-hFc, 37 C, binding pH 7.4, dissociation pH 6.0
[17] = molecular target: monkey NPR1 extracellular domain expressed with a C-terminal myc-myc-hexahistidine (monkey); experiment: as above

Chain of human NPR1 on HEK293/hNPR1 cells (human) (P16066 33-1061): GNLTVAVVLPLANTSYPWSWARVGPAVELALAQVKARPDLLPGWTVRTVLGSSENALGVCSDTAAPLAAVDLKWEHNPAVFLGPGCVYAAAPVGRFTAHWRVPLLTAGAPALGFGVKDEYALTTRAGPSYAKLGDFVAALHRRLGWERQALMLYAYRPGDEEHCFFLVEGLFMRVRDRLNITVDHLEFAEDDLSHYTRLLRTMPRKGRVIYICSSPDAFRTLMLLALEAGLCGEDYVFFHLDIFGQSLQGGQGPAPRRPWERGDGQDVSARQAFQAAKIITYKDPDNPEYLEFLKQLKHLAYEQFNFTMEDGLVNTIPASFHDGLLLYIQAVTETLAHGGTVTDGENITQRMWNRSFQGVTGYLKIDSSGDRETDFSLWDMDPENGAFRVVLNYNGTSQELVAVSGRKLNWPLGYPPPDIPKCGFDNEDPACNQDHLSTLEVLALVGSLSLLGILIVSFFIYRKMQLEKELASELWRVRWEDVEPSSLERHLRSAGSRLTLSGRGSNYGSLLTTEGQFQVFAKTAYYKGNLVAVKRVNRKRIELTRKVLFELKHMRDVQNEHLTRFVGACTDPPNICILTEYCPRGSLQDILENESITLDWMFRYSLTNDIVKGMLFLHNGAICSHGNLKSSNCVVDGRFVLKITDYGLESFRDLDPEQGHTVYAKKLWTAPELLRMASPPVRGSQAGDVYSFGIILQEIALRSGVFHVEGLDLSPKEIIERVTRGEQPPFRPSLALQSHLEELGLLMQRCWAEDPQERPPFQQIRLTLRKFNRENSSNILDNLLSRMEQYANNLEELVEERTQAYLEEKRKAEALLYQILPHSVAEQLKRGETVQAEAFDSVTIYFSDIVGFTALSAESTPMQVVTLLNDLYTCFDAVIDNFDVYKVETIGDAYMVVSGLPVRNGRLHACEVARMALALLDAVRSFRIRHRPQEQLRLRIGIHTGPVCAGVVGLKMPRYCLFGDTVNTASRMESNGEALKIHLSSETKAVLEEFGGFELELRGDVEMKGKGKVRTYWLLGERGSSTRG
Chain of dog NPR1 extracellular domain expressed with a C-terminal myc-myc-hexahistidine (dog) (chain, as listed by the source limits assumed): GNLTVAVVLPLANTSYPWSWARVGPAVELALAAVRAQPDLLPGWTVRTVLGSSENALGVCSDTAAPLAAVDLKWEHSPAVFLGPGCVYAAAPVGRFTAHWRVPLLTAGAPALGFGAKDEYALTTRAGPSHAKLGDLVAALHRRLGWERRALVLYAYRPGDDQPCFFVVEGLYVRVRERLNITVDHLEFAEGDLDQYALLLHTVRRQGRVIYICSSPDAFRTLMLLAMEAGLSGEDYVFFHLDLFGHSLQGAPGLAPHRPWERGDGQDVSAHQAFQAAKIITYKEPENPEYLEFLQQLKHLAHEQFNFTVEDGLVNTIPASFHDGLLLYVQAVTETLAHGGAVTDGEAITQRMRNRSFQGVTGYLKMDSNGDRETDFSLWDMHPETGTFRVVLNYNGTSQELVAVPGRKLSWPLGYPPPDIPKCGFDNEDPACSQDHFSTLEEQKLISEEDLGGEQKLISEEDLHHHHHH

- Max inh., %, cGMP accumulation assay, with 0.2 nM ANP [1]: -1%
- Max inh., %, cGMP accumulation assay, with 0.7 nM BNP [1]: -9%
- 40 nM Ag Bound (RU) [2]: 0 RU
- 40 nM Ag Bound (RU) [3]: 0 RU
- 40 nM Ag Bound (RU) [4]: 1 RU
- 40 nM Ag Bound (RU) [5]: 0 RU
- 40 nM Ag Bound (RU) [6]: 0 RU
- 40 nM Ag Bound (RU) [7]: 0 RU
- 40 nM Ag Bound (RU) [8]: 0 RU
- 40 nM Ag Bound (RU) [9]: 0 RU
- 40 nM Ag Bound (RU) [10]: 0 RU
- 40 nM Ag Bound (RU) [11]: 0 RU
- 40 nM Ag Bound (RU) [12]: 0 RU
- 40 nM Ag Bound (RU) [13]: 0 RU
- 30 nM Ag Bound (RU) [14]: 2 RU
- 30 nM Ag Bound (RU) [15]: 1 RU
- 30 nM Ag Bound (RU) [16]: 2 RU
- 30 nM Ag Bound (RU) [17]: 2 RU
Substance: Isotype control (antibody)
- Max Kill, %, secondary ADC mediated cytotoxicity, no ligand [1]: 0.01%
- Max Kill, %, secondary ADC mediated cytotoxicity, with 100 nM ANP [1]: -4%
- Max Kill, %, secondary ADC mediated cytotoxicity, with 100 nM BNP [1]: 0.5%
